Laboratory results reported in PMC11711466, “Reconstitution of human DNA licensing and the structural and functional analysis of key intermediates” (Nature Communications, 2024).

Assays:
human MCM3 = target: T1, human MCM3 (human, UniProt P25205 1-808); test: cryo-EM structure; hOCCM from a low-salt washed pre-RC reaction with ATPγS, eluted from the DNA beads with DNaseI; 6.09 Å; settings: both partners purified
T1 construct: Subunit of m6; also called hMCM3; source: HEK293-F, co-expressed hMCM2-7; in lysate (co-purification) and purified as hMCM2-7 (Ni-NTA, StrepTrapXT)
T1 sequence (looked up): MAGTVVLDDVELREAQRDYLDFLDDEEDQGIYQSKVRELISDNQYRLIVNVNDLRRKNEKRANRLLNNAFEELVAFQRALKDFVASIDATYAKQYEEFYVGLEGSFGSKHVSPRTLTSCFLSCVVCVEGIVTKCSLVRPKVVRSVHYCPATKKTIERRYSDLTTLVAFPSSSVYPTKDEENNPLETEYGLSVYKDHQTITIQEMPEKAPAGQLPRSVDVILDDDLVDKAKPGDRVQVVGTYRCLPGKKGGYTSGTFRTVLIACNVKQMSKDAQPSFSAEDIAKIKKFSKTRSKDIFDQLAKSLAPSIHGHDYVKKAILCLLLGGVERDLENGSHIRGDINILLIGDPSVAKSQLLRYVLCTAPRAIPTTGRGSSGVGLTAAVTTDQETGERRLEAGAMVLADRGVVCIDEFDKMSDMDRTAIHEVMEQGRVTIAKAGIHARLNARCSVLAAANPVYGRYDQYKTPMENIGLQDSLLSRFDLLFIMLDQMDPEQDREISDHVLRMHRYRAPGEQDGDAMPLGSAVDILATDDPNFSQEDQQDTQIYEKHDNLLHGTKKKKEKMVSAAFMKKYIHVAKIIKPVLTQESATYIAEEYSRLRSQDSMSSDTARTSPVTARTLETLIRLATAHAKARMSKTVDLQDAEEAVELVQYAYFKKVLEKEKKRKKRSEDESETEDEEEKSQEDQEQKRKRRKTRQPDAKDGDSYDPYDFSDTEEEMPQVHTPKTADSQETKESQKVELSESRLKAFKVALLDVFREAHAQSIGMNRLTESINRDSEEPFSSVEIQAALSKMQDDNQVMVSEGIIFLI

human ORC1 = target: T2, human ORC1 (human, UniProt Q13415 1-861); test: affinity co-purification; hORC1-5 co-overexpressed in G1-arrested budding yeast; StrepXT column on the N-terminal Strep tag of hORC1, then heparin column and glycerol gradient; settings: partners not purified
T2 construct: human origin recognition complex subunit 1 (hORC1); Subunit of m1; also called hORC1; hORC1 N-tag; source: S. cerevisiae YC658, co-overexpressed with hORC2-5; in lysate (co-purification) and purified as hORC1-5 (StrepXT, heparin, glycerol gradient); not shown: Twin Strep-tag, N-terminal, kept
T2 sequence (looked up): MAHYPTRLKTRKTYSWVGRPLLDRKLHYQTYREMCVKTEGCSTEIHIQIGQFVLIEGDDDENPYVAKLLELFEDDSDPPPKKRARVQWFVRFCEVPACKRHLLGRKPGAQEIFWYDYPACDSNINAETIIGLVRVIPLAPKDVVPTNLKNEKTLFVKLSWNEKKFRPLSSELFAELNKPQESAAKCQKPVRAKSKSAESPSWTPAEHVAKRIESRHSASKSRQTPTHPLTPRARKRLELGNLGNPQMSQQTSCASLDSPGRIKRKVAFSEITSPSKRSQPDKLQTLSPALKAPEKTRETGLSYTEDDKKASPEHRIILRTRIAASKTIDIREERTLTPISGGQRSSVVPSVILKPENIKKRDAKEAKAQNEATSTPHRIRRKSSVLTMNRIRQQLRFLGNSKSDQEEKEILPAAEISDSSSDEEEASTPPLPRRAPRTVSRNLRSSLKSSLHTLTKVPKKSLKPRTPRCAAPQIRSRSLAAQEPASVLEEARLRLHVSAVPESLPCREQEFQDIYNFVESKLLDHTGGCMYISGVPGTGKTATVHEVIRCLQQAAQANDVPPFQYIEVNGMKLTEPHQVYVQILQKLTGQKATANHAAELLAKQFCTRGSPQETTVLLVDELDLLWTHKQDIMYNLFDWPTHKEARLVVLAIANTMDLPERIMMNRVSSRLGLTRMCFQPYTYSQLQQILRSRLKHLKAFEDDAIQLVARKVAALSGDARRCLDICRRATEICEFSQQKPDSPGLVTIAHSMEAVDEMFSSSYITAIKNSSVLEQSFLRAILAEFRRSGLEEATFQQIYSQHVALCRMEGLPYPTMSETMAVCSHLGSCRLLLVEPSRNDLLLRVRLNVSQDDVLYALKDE

human MCM2 = target: T3, human MCM2 (human, UniProt P49736 1-904); test: cryo-EM structure; hOCCM from a low-salt washed pre-RC reaction with ATPγS, eluted from the DNA beads with DNaseI; 6.09 Å; settings: both partners purified
T3 construct: human MCM2 (hMCM2); Subunit of m6; also called hMCM2; source: HEK293-F, co-expressed hMCM2-7; in lysate (co-purification) and purified as hMCM2-7 (Ni-NTA, StrepTrapXT); not shown: twin Strep, N-terminal, kept

human MCM6 = target: T4, human MCM6 (human, UniProt Q14566 1-821); test: as above; settings: both partners purified
T4 construct: Subunit of m6; also called hMCM6; source: HEK293-F, co-expressed hMCM2-7; in lysate (co-purification) and purified as hMCM2-7 (Ni-NTA, StrepTrapXT)
T4 sequence (looked up): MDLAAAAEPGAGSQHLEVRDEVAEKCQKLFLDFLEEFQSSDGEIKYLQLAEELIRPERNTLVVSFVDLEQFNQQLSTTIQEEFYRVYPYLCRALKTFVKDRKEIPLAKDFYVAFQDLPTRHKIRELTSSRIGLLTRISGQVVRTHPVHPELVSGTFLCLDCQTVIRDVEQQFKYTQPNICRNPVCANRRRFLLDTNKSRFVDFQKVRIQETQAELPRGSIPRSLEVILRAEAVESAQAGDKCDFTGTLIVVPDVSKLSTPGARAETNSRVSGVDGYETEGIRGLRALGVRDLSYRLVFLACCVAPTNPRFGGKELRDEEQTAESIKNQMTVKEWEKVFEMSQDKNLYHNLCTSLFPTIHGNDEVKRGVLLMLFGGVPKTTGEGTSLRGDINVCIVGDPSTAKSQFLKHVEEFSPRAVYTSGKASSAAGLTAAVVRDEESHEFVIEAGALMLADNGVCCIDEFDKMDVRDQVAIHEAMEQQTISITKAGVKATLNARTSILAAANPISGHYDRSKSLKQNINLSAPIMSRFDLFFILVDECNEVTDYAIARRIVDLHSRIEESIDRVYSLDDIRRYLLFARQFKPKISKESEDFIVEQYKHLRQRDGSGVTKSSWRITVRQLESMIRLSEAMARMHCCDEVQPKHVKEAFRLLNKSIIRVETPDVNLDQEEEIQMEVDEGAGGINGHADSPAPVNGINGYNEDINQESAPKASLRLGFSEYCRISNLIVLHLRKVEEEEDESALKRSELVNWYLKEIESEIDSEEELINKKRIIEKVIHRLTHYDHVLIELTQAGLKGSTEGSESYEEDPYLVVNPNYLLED

T3 sequence (P49736 whole entry): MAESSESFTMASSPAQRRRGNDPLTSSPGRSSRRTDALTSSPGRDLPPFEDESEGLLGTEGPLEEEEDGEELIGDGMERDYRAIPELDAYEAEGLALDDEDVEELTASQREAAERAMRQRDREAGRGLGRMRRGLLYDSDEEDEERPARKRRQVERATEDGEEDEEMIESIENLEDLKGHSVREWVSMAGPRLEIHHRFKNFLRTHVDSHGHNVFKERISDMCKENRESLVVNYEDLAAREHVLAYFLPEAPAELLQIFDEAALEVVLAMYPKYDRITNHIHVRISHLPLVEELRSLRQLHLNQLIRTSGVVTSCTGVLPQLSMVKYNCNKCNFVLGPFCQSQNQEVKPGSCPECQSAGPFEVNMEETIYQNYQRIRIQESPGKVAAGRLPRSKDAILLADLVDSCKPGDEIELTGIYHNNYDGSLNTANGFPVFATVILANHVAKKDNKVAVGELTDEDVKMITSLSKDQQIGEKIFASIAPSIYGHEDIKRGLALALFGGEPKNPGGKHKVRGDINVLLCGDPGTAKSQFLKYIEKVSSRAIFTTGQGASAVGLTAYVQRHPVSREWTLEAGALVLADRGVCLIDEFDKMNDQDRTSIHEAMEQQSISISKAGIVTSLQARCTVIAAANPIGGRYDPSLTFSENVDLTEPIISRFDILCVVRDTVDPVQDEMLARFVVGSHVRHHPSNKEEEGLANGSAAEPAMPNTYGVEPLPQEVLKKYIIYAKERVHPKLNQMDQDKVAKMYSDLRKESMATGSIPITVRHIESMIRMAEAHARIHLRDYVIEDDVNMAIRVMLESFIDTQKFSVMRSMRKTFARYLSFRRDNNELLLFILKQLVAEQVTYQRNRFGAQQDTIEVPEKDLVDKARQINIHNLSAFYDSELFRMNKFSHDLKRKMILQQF

B1: human ORC2 (natural protein, UniProt Q13416 1-577, looked up)
chain: MSKPELKEDKMLEVHFVGDDDVLNHILDREGGAKLKKERAQLLVNPKKIIKKPEYDLEEDDQEVLKDQNYVEIMGRDVQESLKNGSATGGGNKVYSFQNRKHSEKMAKLASELAKTPQKSVSFSLKNDPEITINVPQSSKGHSASDKVQPKNNDKSEFLSTAPRSLRKRLIVPRSHSDSESEYSASNSEDDEGVAQEHEEDTNAVIFSQKIQAQNRVVSAPVGKETPSKRMKRDKTSDLVEEYFEAHSSSKVLTSDRTLQKLKRAKLDQQTLRNLLSKVSPSFSAELKQLNQQYEKLFHKWMLQLHLGFNIVLYGLGSKRDLLERFRTTMLQDSIHVVINGFFPGISVKSVLNSITEEVLDHMGTFRSILDQLDWIVNKFKEDSSLELFLLIHNLDSQMLRGEKSQQIIGQLSSLHNIYLIASIDHLNAPLMWDHAKQSLFNWLWYETTTYSPYTEETSYENSLLVKQSGSLPLSSLTHVLRSLTPNARGIFRLLIKYQLDNQDNPSYIGLSFQDFYQQCREAFLVNSDLTLRAQLTEFRDHKLIRTKKGTDGVEYLLIPVDNGTLTDFLEKEEEEA
notes: human origin recognition complex subunit 2 (hORC2); Subunit of m1; also called hORC2; source: S. cerevisiae YC658, co-overexpressed with the other hORC1-5 subunits; in lysate (co-purification) and purified as hORC1-5
B1: binds (human MCM3); binds (human ORC1).

B2: human ORC3 (natural protein, UniProt Q9UBD5 1-711, looked up)
chain: MATSSMSKGCFVFKPNSKKRKISLPIEDYFNKGKNEPEDSKLRFETYQLIWQQMKSENERLQEELNKNLFDNLIEFLQKSHSGFQKNSRDLGGQIKLREIPTAALVLGVNVTDHDLTFGSLTEALQNNVTPYVVSLQAKDCPDMKHFLQKLISQLMDCCVDIKSKEEESVHVTQRKTHYSMDSLSSWYMTVTQKTDPKMLSKKRTTSSQWQSPPVVVILKDMESFATKVLQDFIIISSQHLHEFPLILIFGIATSPIIIHRLLPHAVSSLLCIELFQSLSCKEHLTTVLDKLLLTTQFPFKINEKVLQVLTNIFLYHDFSVQNFIKGLQLSLLEHFYSQPLSVLCCNLPEAKRRINFLSNNQCENIRRLPSFRRYVEKQASEKQVALLTNERYLKEETQLLLENLHVYHMNYFLVLRCLHKFTSSLPKYPLGRQIRELYCTCLEKNIWDSEEYASVLQLLRMLAKDELMTILEKCFKVFKSYCENHLGSTAKRIEEFLAQFQSLDETKEEEDASGSQPKGLQKTDLYHLQKSLLEMKELRRSKKQTKFEVLRENVVNFIDCLVREYLLPPETQPLHEVVYFSAAHALREHLNAAPRIALHTALNNPYYYLKNEALKSEEGCIPNIAPDICIAYKLHLECSRLINLVDWSEAFATVVTAAEKMDANSATSEEMNEIIHARFIRAVSELELLGFIKPTKQKTDHVARLTWGGC
notes: human origin recognition complex subunit 3 (hORC3); Subunit of m1; also called hORC3; source: S. cerevisiae YC658, co-overexpressed with the other hORC1-5 subunits; in lysate (co-purification) and purified as hORC1-5
B2: binds (human MCM2); binds (human ORC1).

B3: human ORC5 (natural protein, UniProt O43913 1-435, looked up)
chain: MPHLENVVLCRESQVSILQSLFGERHHFSFPSIFIYGHTASGKTYVTQTLLKTLELPHVFVNCVECFTLRLLLEQILNKLNHLSSSEDGCSTEITCETFNDFVRLFKQVTTAENLKDQTVYIVLDKAEYLRDMEANLLPGFLRLQELADRNVTVLFLSEIVWEKFRPNTGCFEPFVLYFPDYSIGNLQKILSHDHPPEYSADFYAAYINILLGVFYTVCRDLKELRHLAVLNFPKYCEPVVKGEASERDTRKLWRNIEPHLKKAMQTVYLREISSSQWEKLQKDDTDPGQLKGLSAHTHVELPYYSKFILIAAYLASYNPARTDKRFFLKHHGKIKKTNFLKKHEKTSNHLLGPKPFPLDRLLAILYSIVDSRVAPTANIFSQITSLVTLQLLTLVGHDDQLDGPKYKCTVSLDFIRAIARTVNFDIIKYLYDFL
notes: human origin recognition complex subunit 5 (hORC5); Subunit of m1; also called hORC5; source: S. cerevisiae YC658, co-overexpressed with the other hORC1-5 subunits; in lysate (co-purification) and purified as hORC1-5
B3: binds (human MCM6); binds (human ORC1).

B4: human ORC4 (natural protein, UniProt O43929 1-436, looked up)
chain: MSSRKSKSNSLIHTECLSQVQRILRERFCRQSPHSNLFGVQVQYKHLSELLKRTALHGESNSVLIIGPRGSGKTMLINHALKELMEIEEVSENVLQVHLNGLLQINDKIALKEITRQLNLENVVGDKVFGSFAENLSFLLEALKKGDRTSSCPVIFILDEFDLFAHHKNQTLLYNLFDISQSAQTPIAVIGLTCRLDILELLEKRVKSRFSHRQIHLMNSFGFPQYVKIFKEQLSLPAEFPDKVFAEKWNENVQYLSEDRSVQEVLQKHFNISKNLRSLHMLLMLALNRVTASHPFMTAVDLMEASQLCSMDSKANIVHGLSVLEICLIIAMKHLNDIYEEEPFNFQMVYNEFQKFVQRKAHSVYNFEKPVVMKAFEHLQQLELIKPMERTSGNSQREYQLMKLLLDNTQIMNALQKYPNCPTDVRQWATSSLSWL
notes: human origin recognition complex subunit 4 (hORC4); Subunit of m1; also called hORC4; source: S. cerevisiae YC658, co-overexpressed with the other hORC1-5 subunits; in lysate (co-purification) and purified as hORC1-5
B4: binds (human MCM6); binds (human ORC1).
